Laboratory results published in patent US20250327097A1, “ORGANISMS PRODUCING LESS CROTONIC ACID” (Global Bioenergies, priority 2021, published 2025).
Residue numbers refer to the chain shown, from its start. Numbers in names are those of the source.

B1: I283T-N285P-N287T-Q290E-S322T-N388M-K394R-i421aE-C430A-L432F-L434W-S436N-dG462 (protein)
chain: MFLKSLREQINLLKRQGDLRIINRPVDSYLEAAAIIRRSTETKAPVPLMTNIKGYPGCSIVGGLAALSSNPEYPLSRVAMSLGLSTTASAQSIVQYLIDGLKKTPYLPVEIDSNSAPCKQNILRGEDASLAHFPIPQVHQHDGNRYVNTWGVFIVESPDGQWCNWSIQRVQYLNDRQMIALVFPSQHISDIWEEWVKIGKPMPYALVQGCEPIVPYIAGLPLLERNVNEAEYIGALYGKGIEVVKCETHDLRVPASSEVVIEGYFAITREGVEGPFGEFAGYTPPETSLEPILSITAISWQDDPIWPVVAEGKPVDEYHTCTGIGDAAAIQNVLLTANLPVSFVWVPLYSACHLMIVSINRHWRQTHPDLTSEQLTKKVGDVIHQTRMSIKLPRIVVLDDDVDPADTESLLWALATRIHPERKRYFYESAIFPWLNCYSEEERHNRKGKRVIIDALLPENHGAISSFDYAYPDDIKQRVLMHWETDFSHD
B2: I283T-N285P-N287T-Q290E-S322T-N388M-K394R-C430A-i430aQ-L432F-L434W-S436N-dG462 (protein)
chain: B1 chain
B3: I283T-N285P-N287T-Q290E-S322T-N388M-K394R-C430A-L432F-L434W-S436N-i438aD-dG462 (protein)
chain: B1 chain
B4: I283T-N285P-N287T-Q290E-S322T-N388M-K394R-i421aR-C430A-L432F-L434W-S436N-dG462 (protein)
chain: B1 chain
B5: I283T-N285P-N287T-Q290E-S322T-N388M-K394R-C430A-L432F-L434W-S436N-i443aR-dG462 (protein)
chain: B1 chain
B6: I283T-N285P-N287T-Q290E-S322T-N388M-K394R-i424aL-C430A-L432F-L434W-S436N-dG462 (protein)
chain: B1 chain
B7: I283T-N285P-N287T-Q290E-S322T-N388M-K394R-i421aP-C430A-L432F-L434W-S436N-dG462 (protein)
chain: B1 chain
B8: I283T-N285P-N287T-Q290E-S322T-N388M-K394R-i424aW-C430A-L432F-L434W-S436N-dG462 (protein)
chain: B1 chain
B9: S322T-N388M-K394R-C430N-L432F-L434W-S436N (protein)
chain: B1 chain with T283I, P285N, T287N, E290Q, A430N
B10: I283T-N285P-N287T-Q290E-S322T-N388M-K394R-C430A-i430aH-L432F-L434W-S436N-dG462 (protein)
chain: B1 chain
B11: I283T-N285P-N287T-Q290E-S322T-N388M-K394R-C430A-i430aN-L432F-L434W-S436N-dG462 (protein)
chain: B1 chain
B12: I283T-N285P-N287T-Q290E-S322T-N388M-K394R-C430A-i430aG-L432F-L434W-S436N-dG462 (protein)
chain: B1 chain
B13: I283T-N285P-N287T-Q290E-S322T-N388M-K394R-i429aN-C430A-L432F-L434W-S436N-dG462 (protein)
chain: B1 chain
B14: I283T-N285P-N287T-Q290E-S322T-N388M-K394R-C430A-i430aS-L432F-L434W-S436N-dG462 (protein)
chain: B1 chain
B15: I283T-N285P-N287T-Q290E-S322T-N388M-K394R-C430A-i430aL-L432F-L434W-S436N-dG462 (protein)
chain: B1 chain
B16: I283T-N285P-N287T-Q290E-S322T-N388M-K394R-C430A-i430aC-L432F-L434W-S436N-dG462 (protein)
chain: B1 chain
B17: I283T-N285P-N287T-Q290E-S322T-N388M-K394R-i424aA-C430A-L432F-L434W-S436N-dG462 (protein)
chain: B1 chain
B18: I283T-N285P-N287T-Q290E-S322T-N388M-K394R-C430A-i430aI-L432F-L434W-S436N-dG462 (protein)
chain: B1 chain
B19: I283T-N285P-N287T-Q290E-S322T-N388M-K394R-C430A-i430aR-L432F-L434W-S436N-dG462 (protein)
chain: B1 chain
B20: I283T-N285P-N287T-Q290E-S322T-N388M-K394R-i424aS-C430A-L432F-L434W-S436N-dG462 (protein)
chain: B1 chain
B21: I283T-N285P-N287T-Q290E-S322T-N388M-K394R-i426aL-C430A-L432F-L434W-S436N-dG462 (protein)
chain: B1 chain
B22: I283T-N285P-N287T-Q290E-S322T-N388M-K394R-i424aD-C430A-L432F-L434W-S436N-dG462 (protein)
chain: B1 chain
B23: N388M-K394R-S429D-C430N-L432F-L434W-S436N (protein)
chain: B1 chain with T283I, P285N, T287N, E290Q, T322S, S429D, A430N

system: 3-methylcrotonic acid; assay type: biochemical, Yersinia frederiksenii; parameters: key: “+” representing a low increase in activity; “++++” representing a high increase in activity

Row | Molecule | Activity relative to WT
1 | B1 | ++++
2 | B2 | ++++
3 | B3 | ++++
4 | B4 | ++++
5 | B5 | ++++
6 | B6 | ++++
7 | B7 | ++++
8 | B8 | ++++
9 | B9 | +
10 | B10 | ++++
11 | B11 | ++++
12 | B12 | ++++
13 | B13 | ++++
14 | B14 | ++++
15 | B15 | ++++
16 | B16 | ++++
17 | B17 | ++++
18 | B18 | ++++
19 | B19 | ++++
20 | B20 | ++++
21 | B21 | ++++
22 | B22 | ++++
23 | B23 | +
